Experimental data: patent US8802681B2, “Pharmaceutical compositions with attenuated release of phenolic opioids” (Signature Therapeutics, Inc., priority 2008, dated 2014)

What was measured:
[1] = Oral administration of Compound 3 and Compound 101 to rats, hydromorphone in plasma; format: in vivo, rat; settings: Compound 3 20 mg/kg, Compound 101 10 mg/kg
Procedure: Saline solutions of Compound 3 (which can be prepared as described in Example 12) and Compound 101 (prepared as described in Example 14) were dosed as indicated in Table 8.

[2] = Oral administration of Compound 4 and Compound 101 to rats, hydromorphone in plasma; format: in vivo, rat; settings: Compound 4 20 mg/kg, Compound 101 10 mg/kg
Procedure: Saline solutions of Compound 4 (which can be prepared as described in Example 13) and Compound 101 (prepared as described in Example 14) were dosed as indicated in Table 9.

[3] = Oral administration of Compound 1 and SBTI to rats, hydromorphone in blood; format: in vivo, rat
Procedure: At specified time points, blood samples were drawn, quenched into methanol, centrifuged at 14,000 rpm @ 4° C., and stored at −80° C. until analysis by high performance liquid chromatography/mass spectrometry (HPLC/MS).

[4] = Oral administration of Compound 1 and SBTI in the presence of ovalbumin to rats, hydromorphone in plasma; format: in vivo, rat; settings: Compound 1 20 mg/kg
Procedure: In an effort to understand the role of SBTI, ovalbumin was used as a non-trypsin inhibitor protein control. Albumin from chicken egg white (ovalbumin) (Catalog No. A7641, Grade VII, lyophilized powder, Sigma-Aldrich) was dissolved in saline.
At specified time points, blood samples were drawn, harvested for plasma via centrifugation at 5,400 rpm at 4° C. for 5 min, and 100 microliters (μl) plasma transferred from each sample into a fresh tube containing 1 μl of formic acid. The tubes were vortexed for 5-10 seconds, immediately placed in dry ice and then stored until analysis by HPLC/MS.

[5] = Oral administration of Compound 2 and SBTI to rats, hydromorphone in plasma; format: in vivo, rat; settings: Compound 2 20 mg/kg, SBTI 500 mg/kg
Procedure: When SBTI was dosed, it was administered 5 min prior to Compound 4. At specified time points, blood samples were drawn, processed and analyzed as described in Example 2.

[6] = Oral administration of Compound 3 and SBTI to rats, hydromorphone in plasma; format: in vivo, rat; settings: Compound 3 20 mg/kg, SBTI 500 mg/kg
Excerpt: Dosing, sampling and analysis procedures were as described in Example 4.

[7] = Oral administration of Compound 4 and SBTI to rats, hydromorphone in plasma; format: in vivo, rat; settings: Compound 4 20 mg/kg, SBTI 500 mg/kg
Procedure: Dosing, sampling and analysis procedures were as described in Example 4, except that Compound 4 without inhibitor was administered to 7 rats.

trypsin = target: T1, trypsin (Bos taurus, UniProt P00760); experiment: Modified trypsin assay (in vitro IC50); format: biochemical; settings: trypsin inhibition
T1 sequence (P00760 24-246): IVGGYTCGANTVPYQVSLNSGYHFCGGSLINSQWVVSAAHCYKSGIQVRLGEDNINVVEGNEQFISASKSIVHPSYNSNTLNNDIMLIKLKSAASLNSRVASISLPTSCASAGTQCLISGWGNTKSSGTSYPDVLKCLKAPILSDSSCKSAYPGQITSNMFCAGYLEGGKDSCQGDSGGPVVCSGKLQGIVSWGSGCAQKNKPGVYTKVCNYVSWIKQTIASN

CCOC(=O)N1CCN(C(=O)[C@H](CCCNC(=N)N)NS(=O)(=O)c2ccc3ccccc3c2)CC1 [Compound 101, (S)-ethyl 4-(5-guanidino-2-(naphthalene-2-sulfonamido)pentanoyl)piperazine-1-carboxylate]
Effect of Compound 101 on Compound 3's release of hydromorphone [1]: attenuates Compound 3's ability to release hydromorphone, both with respect to suppressing Cmax and delaying Tmax | Effect of Compound 101 on Compound 4's release of hydromorphone [2]: attenuates Compound 4's ability to release hydromorphone, both with respect to suppressing Cmax and delaying Tmax

B1: SBTI: trypsin inhibitor from Glycine max (soybean), Catalog No. 93620, ~10,000 units per mg, Sigma-Aldrich (protein, UniProt P01070 25-205, looked up)
Trypsin inhibitor A: DFVLDNEGNPLENGGTYYILSDITAFGGIRAAPTGNERCPLTVVQSRNELDKGIGTIISSPYRIRFIAEGHPLSLKFDSFAVIMLCVGIPTEWSVVEDLPEGPAVKIGENKDAMDGWFRLERVSDDEFNNYKLVFCPQQAEDDKCGDIGISIDHDDGTRRLVVSKNKPLVVQFQKLDKESL
Effect of SBTI on Compound 1's release of hydromorphone ([3]; Compound 1 20 mg/kg, SBTI 10-1000 mg/kg): attenuates Compound 1's ability to release hydromorphone in a dose-dependent manner | Attenuation of hydromorphone release from Compound 1 ([3]; at higher SBTI concentrations): approximately 100% | Effect of SBTI on Compound 1's release of hydromorphone ([4]; SBTI 500 mg/kg in the presence of 500 mg/kg ovalbumin): suppresses Cmax and delays Tmax | Effect of SBTI on Compound 2's release of hydromorphone [5]: attenuates Compound 2's ability to release hydromorphone, both with respect to suppressing Cmax and delaying Tmax | Effect of SBTI on Compound 3's release of hydromorphone [6]: attenuates Compound 3's ability to release hydromorphone, both with respect to suppressing Cmax and delaying Tmax | Effect of SBTI on Compound 4's release of hydromorphone [7]: attenuates Compound 4's ability to release hydromorphone, at least with respect to delaying Tmax | IC50 (trypsin): 270 nM

B2: ovalbumin: Albumin from chicken egg white, Catalog No. A7641, Grade VII, Sigma-Aldrich; non-trypsin inhibitor protein control (protein, UniProt P01012 2-386, looked up)
Ovalbumin: GSIGAASMEFCFDVFKELKVHHANENIFYCPIAIMSALAMVYLGAKDSTRTQINKVVRFDKLPGFGDSIEAQCGTSVNVHSSLRDILNQITKPNDVYSFSLASRLYAEERYPILPEYLQCVKELYRGGLEPINFQTAADQARELINSWVESQTNGIIRNVLQPSSVDSQTAMVLVNAIVFKGLWEKAFKDEDTQAMPFRVTEQESKPVQMMYQIGLFRVASMASEKMKILELPFASGTMSMLVLLPDEVSGLEQLESIINFEKLTEWTSSNVMEERKIKVYLPRMKMEEKYNLTSVLMAMGITDVFSSSANLSGISSAESLKISQAVHAAHAEINEAGREVVGSAEAGVDAASVSEEFRADHPFLFCIKHIATNAVLFFGRCVSP
Effect of ovalbumin on Compound 1's release of hydromorphone ([4]; OVA 20-1000 mg/kg): does not significantly affect Compound 1's ability to release hydromorphone
